The source of these data is PMC7406630, “A new ^68Ga-labeled somatostatin analog containing two iodo-amino acids for dual somatostatin receptor subtype 2 and 5 targeting” (EJNMMI Research, 2020).

Like-named read-outs stand apart in the source and are kept apart here.

Series [1] is classed as physicochemical. Conditions: pH 7.4. The method, then:
To a pre-saturated mixture of 500 μL n-octanol and 500 μL of phosphate-buffered saline (PBS) at pH 7.4, 10 μL of 1 μM of ^67Ga-labeled conjugates was added. The solutions were vortexed for 1 h to reach equilibrium and then centrifuged (3000 rpm) for 10 min. From each phase, 100 μL was removed and measured in a γ-counter. The partition coefficient was calculated as the average of the logarithmic values (n = 3) of the ratio between the radioactivity in the organic and the PBS phase.

Series [2] in a line: in vivo. Conditions: female, mouse, 100 pmol, total radioactivity.
Series [3] in a line: in vivo. Conditions: female, mouse, 100 pmol, total radioactivity. The source holds these as a separate data set.
Series [4] deals with T1, human SST2 (Homo sapiens, UniProt P30874).
T1 construct: expressed in transfected cells; host or cells: HEK293 (HEK-SST2)
T1 sequence (P30874 whole entry): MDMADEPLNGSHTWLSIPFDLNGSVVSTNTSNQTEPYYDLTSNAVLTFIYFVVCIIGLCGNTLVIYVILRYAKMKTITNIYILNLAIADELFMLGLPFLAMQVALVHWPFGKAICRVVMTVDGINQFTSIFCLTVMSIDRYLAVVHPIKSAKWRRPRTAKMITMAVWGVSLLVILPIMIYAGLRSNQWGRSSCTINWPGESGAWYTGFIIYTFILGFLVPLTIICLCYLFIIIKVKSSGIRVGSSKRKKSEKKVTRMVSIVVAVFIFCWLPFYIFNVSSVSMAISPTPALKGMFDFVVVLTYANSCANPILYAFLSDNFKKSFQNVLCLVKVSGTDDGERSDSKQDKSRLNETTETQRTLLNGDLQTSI
In words: Competition binding assay on HEK-SST2 cells with ^125I-labeled SS-14. The note with it: read-out: SST2 IC50, nM (95% CI), ^125I-SS-14 radioligand, 3 to 5 sessions in duplicate. The protocol: (§1) Human Embryonic Kidney (HEK293) cells (a kind gift from Dr. A. Mühlethaler-Mottet, Pediatric Hematology-Oncology Unit, Lausanne University Hospital, Switzerland) were stably transfected with plasmids encoding the human SST2 and SST5 (HEK-SST2 and HEK-SST5) and cultivated as previously described. Non-transfected HEK cells were used as a negative control.
(§2) Binding assays were performed as described previously.

Series [5] addresses T2, human SST5 (Homo sapiens, UniProt P35346).
T2 construct: expressed in transfected cells; host or cells: HEK293 (HEK-SST5)
In words: Competition binding assay on HEK-SST5 cells with ^125I-labeled SS-14. Conditions: read-out: SST5 IC50, nM (95% CI), ^125I-SS-14 radioligand, 3 to 5 sessions in duplicate. The method, then: as §1, §2

Series [6] concerns the target T1, human SST2. In words: cAMP accumulation experiments on HEK-SST2 cells (agonistic potency). The class given is cell-based. Conditions: for EC50: read-out: SST2 EC50, nM (95% CI), cAMP, HEK-SST2 cells, 3 to 4 sessions in duplicate. (Cyclic AMP is a second messenger, typically raised through Gs and lowered through Gi signalling.)
Protocol: (§3) Human Embryonic Kidney (HEK293) cells (a kind gift from Dr. A. Mühlethaler-Mottet, Pediatric Hematology-Oncology Unit, Lausanne University Hospital, Switzerland) were stably transfected with plasmids encoding the human SST2 and SST5 (HEK-SST2 and HEK-SST5) and cultivated as previously described [25]. Non-transfected HEK cells were used as a negative control.
(§4) cAMP accumulation experiments on HEK-SST2 and HEK-SST5 cells were performed with cAMP direct immunoassay kit (colorimetric, K371, BioVision) as described previously [25].
For series [7], the target named is T2, human SST5. Nature of the series: cAMP accumulation experiments on HEK-SST5 cells (agonistic potency). The note with it: read-out: SST5 EC50, nM (95% CI), 3 to 4 sessions in duplicate. In kind it is cell-based.
Protocol: as §3, §4
The test system of series [8] is SST5. Also noted: method as in PMID 25918675. Conditions: cited from earlier work.
A further series has as its system SST2. Also noted: method as in PMID 10774879. The note with it: cited from earlier work.
Series [9] deals with SST5. Also noted: method as in PMID 10774879. Conditions: cited from earlier work.
The conditions of series [10]: in vivo; cited from earlier work.
Setting [11] is: athymic Nude-Foxn1^nu/Foxn1^+, Adrenal uptake.
The mark [12] stands for this setting: athymic Nude-Foxn1^nu/Foxn1^+, Blood uptake.
The mark [13] stands for this setting: athymic Nude-Foxn1^nu/Foxn1^+, Femur uptake.
The mark [14] stands for this setting: athymic Nude-Foxn1^nu/Foxn1^+, Heart uptake.
[15] abbreviates: athymic Nude-Foxn1^nu/Foxn1^+, Intestine uptake.
Setting [16] is: athymic Nude-Foxn1^nu/Foxn1^+, Kidney uptake.
[17] abbreviates: athymic Nude-Foxn1^nu/Foxn1^+, Lung uptake.
[18] abbreviates: athymic Nude-Foxn1^nu/Foxn1^+, Muscle uptake.
[19] abbreviates: athymic Nude-Foxn1^nu/Foxn1^+, Pancreas uptake.
Where [20] appears, read: athymic Nude-Foxn1^nu/Foxn1^+, Pituitary uptake.
[21] abbreviates: athymic Nude-Foxn1^nu/Foxn1^+, SST2 tumor uptake.
The mark [22] stands for this setting: athymic Nude-Foxn1^nu/Foxn1^+, SST5 tumor uptake.
The mark [23] stands for this setting: athymic Nude-Foxn1^nu/Foxn1^+, Stomach uptake.
The mark [24] stands for this setting: athymic Nude-Foxn1nu/Foxn1+, Spleen uptake.
[25] abbreviates: athymic Nude-Foxn1^nu/Foxn1^+, Liver uptake.
Where [26] appears, read: athymic Nude-Foxn1nu/Foxn1+, Pancreas uptake.

A word on the tissue uptake: it is the share of the injected amount in each gram of the tissue. In general, IC50 refers to the point on the concentration scale where inhibition reaches its midpoint. Usually EC50 stands for the midpoint of the concentration-response curve.

T2 sequence (P35346 whole entry): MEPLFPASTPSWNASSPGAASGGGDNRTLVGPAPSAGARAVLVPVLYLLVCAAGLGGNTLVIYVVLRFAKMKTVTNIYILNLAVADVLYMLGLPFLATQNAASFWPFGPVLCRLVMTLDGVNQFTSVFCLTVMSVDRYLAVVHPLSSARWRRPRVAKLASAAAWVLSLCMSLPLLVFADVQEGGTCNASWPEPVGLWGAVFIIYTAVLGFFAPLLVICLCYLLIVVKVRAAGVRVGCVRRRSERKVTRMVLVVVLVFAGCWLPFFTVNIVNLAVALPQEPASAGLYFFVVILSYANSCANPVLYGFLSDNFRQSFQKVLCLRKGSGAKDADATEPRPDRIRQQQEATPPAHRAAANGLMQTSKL

For `C[C@@H](O)[C@@H]1NC(=O)[C@H](CCCCN)NC(=O)[C@@H](Cc2c[nH]c3ccccc23)NC(=O)[C@H](Cc2cccc3ccccc23)NC(=O)[C@@H](NC(=O)[C@@H](Cc2ccccc2)NC(=O)CN2CCN(CC(=O)O)CCN(CC(=O)O)CCN(CC(=O)O)CC2)CSSC[C@@H](C(=O)N[C@H](CO)[C@@H](C)O)NC1=O` [[^67Ga]Ga-DOTA-NOC, metal not drawn], the “log D” value in series [1] was “− 1.6 ± 0.1”.

For `CC(C)[C@@H]1NC(=O)[C@H](CCCCN)NC(=O)[C@@H](Cc2c[nH]c3ccccc23)NC(=O)[C@H](Cc2ccc(O)c(I)c2)NC(=O)[C@@H](NC(=O)[C@@H](Cc2ccc(N)c(I)c2)NC(=O)CN2CCN(CC(=O)O)CCN(CC(=O)O)CCN(CC(=O)O)CC2)CSSC[C@@H](C(=O)N[C@H](C(N)=O)[C@@H](C)O)NC1=O` [[^67Ga]Ga-DOTA-ST8950, metal not drawn], the “log D” value in [1] is reported as “− 1.0 ± 0.1”.

Consider `C[C@@H](O)[C@H](NC(=O)[C@@H]1CSSC[C@H](NC(=O)[C@@H](Cc2ccccc2)NC(=O)CN2CCN(CC(=O)O)CCN(CC(=O)O)CCN(CC(=O)O)CC2)C(=O)N[C@@H](Cc2ccc(O)cc2)C(=O)N[C@H](Cc2c[nH]c3ccccc23)C(=O)N[C@@H](CCCCN)C(=O)N[C@@H]([C@@H](C)O)C(=O)N1)C(=O)O` [[^67Ga]Ga-DOTA-TATE, metal not drawn], for which the “log D” value in series [1] is recorded as “− 3.0 ± 0.1”.

On to `C[C@@H](O)[C@@H]1NC(=O)[C@H](CCCCN)NC(=O)[C@@H](Cc2c[nH]c3ccccc23)NC(=O)[C@H](Cc2cccc3ccccc23)NC(=O)[C@@H](NC(=O)[C@@H](Cc2ccccc2)NC(=O)CN2CCN(CC(=O)O)CCN(CC(=O)O)CCN(CC(=O)O)CC2)CSSC[C@@H](C(=O)N[C@H](CO)[C@@H](C)O)NC1=O` [[^68Ga]Ga-DOTA-NOC, [^68Ga][Ga-DOTA^0,1-Nal^3]-octreotide, metal not drawn, reference compound], for which the tissue uptake at 1 h in the series “in vivo [2]” (setting [11]) stood at 4.6 ± 1 %ID/g; in the series “in vivo [2]” (setting [12]), 1.1 ± 0.4 %ID/g; in “in vivo [2]” (setting [13]), 1.7 ± 0.8 %ID/g; in the series “in vivo [2]” (setting [14]), 0.7 ± 0.2 %ID/g; in the series “in vivo [2]” (setting [15]), 3.3 ± 0.7 %ID/g; in “in vivo [2]” (setting [16]), 9.8 ± 3.2 %ID/g. In addition, the tissue uptake at 1 h in “in vivo [2]” (setting [17]) was found to be 3.3 ± 1.4 %ID/g; in “in vivo [2]” (setting [18]) it was 0.5 ± 0.2 %ID/g; in “in vivo [2]” (setting [19]), 16 ± 3 %ID/g; in “in vivo [2]” (setting [20]), 8.2 ± 2.8 %ID/g; in the series “in vivo [2]” (setting [21]) it was 30 ± 8 %ID/g; in the series “in vivo [2]” (setting [22]), 12 ± 5 %ID/g. Moreover, the tissue uptake at 1 h in “in vivo [2]” (setting [23]) was 12 ± 2 %ID/g; in the series “in vivo [2]” (setting [24]) it was 0.8 ± 0.2 %ID/g.

As for `CC(C)[C@@H]1NC(=O)[C@H](CCCCN)NC(=O)[C@@H](Cc2c[nH]c3ccccc23)NC(=O)[C@H](Cc2ccc(O)c(I)c2)NC(=O)[C@@H](NC(=O)[C@@H](Cc2ccc(N)c(I)c2)NC(=O)CN2CCN(CC(=O)O)CCN(CC(=O)O)CCN(CC(=O)O)CC2)CSSC[C@@H](C(=O)N[C@H](C(N)=O)[C@@H](C)O)NC1=O` [[^68Ga]Ga-DOTA-ST8950, metal not drawn], the tissue uptake at 2 h in “in vivo [2]” (setting [11]) came to 4.3 ± 1 %ID/g; in the series “in vivo [2]” (setting [12]) it was 0.8 ± 0.2 %ID/g; in the series “in vivo [2]” (setting [13]) it was 2.4 ± 0.8 %ID/g; in the series “in vivo [2]” (setting [14]), 0.8 ± 0.2 %ID/g; in the series “in vivo [2]” (setting [15]), 2.7 ± 0.3 %ID/g; in “in vivo [2]” (setting [16]) it was 14 ± 2 %ID/g. Also, the tissue uptake at 2 h came out at 7.3 ± 1.5 %ID/g in the series “in vivo [2]” (setting [25]); 3.5 ± 0.7 %ID/g in the series “in vivo [2]” (setting [17]); 0.6 ± 0.1 %ID/g in “in vivo [2]” (setting [18]); 7.8 ± 1.2 %ID/g in “in vivo [2]” (setting [20]); 32 ± 7 %ID/g in the series “in vivo [2]” (setting [21]); 14 ± 3 %ID/g in the series “in vivo [2]” (setting [22]). Also, the tissue uptake at 2 h turned out to be 8.4 ± 1.2 %ID/g in “in vivo [2]” (setting [23]), 8.6 ± 2.1 %ID/g in “in vivo [2]” (setting [26]) and 1.5 ± 0.3 %ID/g in the series “in vivo [2]” (setting [24]). Moreover, the tissue uptake at 1 h in “in vivo [2]” (setting [15]) is 2.4 ± 1.3 %ID/g; in “in vivo [2]” (setting [25]), 6.4 ± 1.9 %ID/g; in “in vivo [2]” (setting [19]), 8.5 ± 4.5 %ID/g; in “in vivo [2]” (setting [20]) it was 8.5 ± 1.9 %ID/g; in “in vivo [2]” (setting [21]), 26 ± 8 %ID/g; in the series “in vivo [2]” (setting [22]), 15 ± 6 %ID/g. The tissue uptake at 1 h in the series “in vivo [3]” (setting [15]) worked out at 2.5 ± 0.2 %ID/g; in “in vivo [3]” (setting [25]) it was 6.2 ± 0.6 %ID/g; in the series “in vivo [3]” (athymic Nude-Foxn1^nu/Foxn1^+, SST(-) tumor uptake) it was 1.4 ± 0.5 %ID/g; in the series “in vivo [3]” (setting [26]), 7.4 ± 1.9 %ID/g.

As for `C[C@@H](O)[C@@H]1NC(=O)[C@H](CCCCN)NC(=O)[C@@H](Cc2c[nH]c3ccccc23)NC(=O)[C@H](Cc2cccc3ccccc23)NC(=O)[C@@H](NC(=O)[C@@H](Cc2ccccc2)NC(=O)CN2CCN(CC(=O)O)CCN(CC(=O)O)CCN(CC(=O)O)CC2)CSSC[C@@H](C(=O)N[C@H](CO)[C@@H](C)O)NC1=O` [^natGa-DOTA-NOC, metal not drawn, reference compound], the IC50 at human SST2 [4] was found to be 0.7 nM; at human SST5 [5], 3.4 nM. For the same compound, the EC50 on human SST2 [6] was 0.59 nM; on human SST5 [7] it was 3.3 nM.

Turning to `CC(C)[C@@H]1NC(=O)[C@H](CCCCN)NC(=O)[C@@H](Cc2c[nH]c3ccccc23)NC(=O)[C@H](Cc2ccc(O)c(I)c2)NC(=O)[C@@H](NC(=O)[C@@H](Cc2ccc(N)c(I)c2)NC(=O)CN2CCN(CC(=O)O)CCN(CC(=O)O)CCN(CC(=O)O)CC2)CSSC[C@@H](C(=O)N[C@H](C(N)=O)[C@@H](C)O)NC1=O` [^natGa-DOTA-ST8950, metal not drawn], the IC50 on human SST2 [4] came out at 0.32 nM. Moreover, on human SST2 [6] (after ^natGa-DOTA conjugation), the “Factor of reduction of agonistic potency for SST2 vs ST8950” value turned out to be 1.6. At human SST2 [6], the EC50 amounted to 0.46 nM.

Turning to `CC(C)[C@@H]1NC(=O)[C@H](CCCCN)NC(=O)[C@@H](Cc2c[nH]c3ccccc23)NC(=O)[C@H](Cc2ccc(O)cc2)NC(=O)[C@@H](NC(=O)[C@@H](Cc2ccc(N)cc2)NC(=O)CN2CCN(CC(=O)O)CCN(CC(=O)O)CCN(CC(=O)O)CC2)CSSC[C@@H](C(=O)N[C@H](C(N)=O)[C@@H](C)O)NC1=O` [^natGa-DOTA-ST8951, metal not drawn], at human SST2 [4], the IC50 was found to be 7.5 nM. Also, the EC50 at human SST2 [6] was 9.8 nM.

With `C[C@@H](O)[C@H](NC(=O)[C@@H]1CSSC[C@H](NC(=O)[C@@H](Cc2ccccc2)NC(=O)CN2CCN(CC(=O)O)CCN(CC(=O)O)CCN(CC(=O)O)CC2)C(=O)N[C@@H](Cc2ccc(O)cc2)C(=O)N[C@H](Cc2c[nH]c3ccccc23)C(=O)N[C@@H](CCCCN)C(=O)N[C@@H]([C@@H](C)O)C(=O)N1)C(=O)O` [^natGa-DOTA-TATE, metal not drawn], the EC50 at human SST5 [7] is 39 nM. Also, in the series with SST5 [8], the half-maximal inhibitory concentration (IC50) is > 1000 nM.

“[^68Ga][Ga-1,4,7,10-tetraazacyclododecane-1,4,7,10-tetraacetic acid^0,Tyr^3]-octreotide [[^68Ga]Ga-DOTA-TOC]”: the IC50 in the series on SST2 is 2.5 ± 0.5 nM; in the series with SST5 [9], 73 ± 21 nM.

Turning to “[^68Ga][Ga-DOTA^0,Tyr^3,Thr^8]-octreotate [[^68Ga]Ga-DOTA-TATE]”, the IC50 with SST2 is 0.2 ± 0.04 nM. In [10], the Blood values was 0.4 ± 0.0 %IA/g and the Liver uptake is reported as 0.4 ± 0.2 %IA/g.
